Laboratory results reported in article PMC4551927 (Nucleic Acids Research, 2015).

B1: Mycobacterium tuberculosis VapB30 antitoxin (natural protein)
chain: MALSIKHPEADRLARALAARTGETLTEAVVTALRERLARETGRARVVPLRDELAAIRHRCAALPVVDNRSAEAILGYDERGLPA
B2: Mycobacterium tuberculosis VapC30 toxin (natural protein)
chain: MMVIDTSALVAMLSDEPDAERFEAAVEADHIRLMSTASYLETALVIEARFGEPGGRELDLWLHRAAVDLVAVHADQADAARAAYRTYGKGRHRAGLNYGDCFSYGLAKISGQPLLFKGEDFQHTDIATVALP

How the values were obtained:
[1] = molecular target: B2; test: crystal structure
crystal structure = molecular target: the molecule itself; test: crystal structure

Binder	binding result [1]	binding result (crystal structure)
B1	binds	binds
B2		binds
